{"source": "paper PMC2171497", "biological_target": "2′,3′-cyclic nucleotide 3′-phosphodiesterase (CNP), endogenous, rat (rat (endogenous in cultured rat OLs and rat brain)) (UniProt P13233)", "sequence (P13233 whole entry)": "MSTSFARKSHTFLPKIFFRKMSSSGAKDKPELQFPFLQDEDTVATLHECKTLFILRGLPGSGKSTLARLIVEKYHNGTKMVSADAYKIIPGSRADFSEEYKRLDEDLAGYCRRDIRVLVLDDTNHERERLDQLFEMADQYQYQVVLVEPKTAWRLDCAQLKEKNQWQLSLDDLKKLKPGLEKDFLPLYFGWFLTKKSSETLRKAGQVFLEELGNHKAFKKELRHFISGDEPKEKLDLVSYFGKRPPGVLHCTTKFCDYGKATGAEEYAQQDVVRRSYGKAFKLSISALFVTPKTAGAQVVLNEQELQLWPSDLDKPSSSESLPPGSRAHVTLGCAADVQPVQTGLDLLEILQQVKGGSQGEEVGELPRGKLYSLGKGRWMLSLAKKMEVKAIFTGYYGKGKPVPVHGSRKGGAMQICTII", "assay": "co-IP"}
{"substance": "tubulin (α- and β-tubulin), endogenous, rat (from UniProt P68370 1-451; Q3KRE8 1-445) (complex)", "values": [{"measurement": "stoichiometry N", "value": 1}]}
